Patent US20190015483A1 (CSL BEHRING RECOMBINANT FACILITY, published 2019)

T1: recombinant Factor VIII (CSL627, rVIII-SingleChain) (Homo sapiens (Human), UniProt P00451 20-2351)
T1 construct: also called FVIII
T1 sequence: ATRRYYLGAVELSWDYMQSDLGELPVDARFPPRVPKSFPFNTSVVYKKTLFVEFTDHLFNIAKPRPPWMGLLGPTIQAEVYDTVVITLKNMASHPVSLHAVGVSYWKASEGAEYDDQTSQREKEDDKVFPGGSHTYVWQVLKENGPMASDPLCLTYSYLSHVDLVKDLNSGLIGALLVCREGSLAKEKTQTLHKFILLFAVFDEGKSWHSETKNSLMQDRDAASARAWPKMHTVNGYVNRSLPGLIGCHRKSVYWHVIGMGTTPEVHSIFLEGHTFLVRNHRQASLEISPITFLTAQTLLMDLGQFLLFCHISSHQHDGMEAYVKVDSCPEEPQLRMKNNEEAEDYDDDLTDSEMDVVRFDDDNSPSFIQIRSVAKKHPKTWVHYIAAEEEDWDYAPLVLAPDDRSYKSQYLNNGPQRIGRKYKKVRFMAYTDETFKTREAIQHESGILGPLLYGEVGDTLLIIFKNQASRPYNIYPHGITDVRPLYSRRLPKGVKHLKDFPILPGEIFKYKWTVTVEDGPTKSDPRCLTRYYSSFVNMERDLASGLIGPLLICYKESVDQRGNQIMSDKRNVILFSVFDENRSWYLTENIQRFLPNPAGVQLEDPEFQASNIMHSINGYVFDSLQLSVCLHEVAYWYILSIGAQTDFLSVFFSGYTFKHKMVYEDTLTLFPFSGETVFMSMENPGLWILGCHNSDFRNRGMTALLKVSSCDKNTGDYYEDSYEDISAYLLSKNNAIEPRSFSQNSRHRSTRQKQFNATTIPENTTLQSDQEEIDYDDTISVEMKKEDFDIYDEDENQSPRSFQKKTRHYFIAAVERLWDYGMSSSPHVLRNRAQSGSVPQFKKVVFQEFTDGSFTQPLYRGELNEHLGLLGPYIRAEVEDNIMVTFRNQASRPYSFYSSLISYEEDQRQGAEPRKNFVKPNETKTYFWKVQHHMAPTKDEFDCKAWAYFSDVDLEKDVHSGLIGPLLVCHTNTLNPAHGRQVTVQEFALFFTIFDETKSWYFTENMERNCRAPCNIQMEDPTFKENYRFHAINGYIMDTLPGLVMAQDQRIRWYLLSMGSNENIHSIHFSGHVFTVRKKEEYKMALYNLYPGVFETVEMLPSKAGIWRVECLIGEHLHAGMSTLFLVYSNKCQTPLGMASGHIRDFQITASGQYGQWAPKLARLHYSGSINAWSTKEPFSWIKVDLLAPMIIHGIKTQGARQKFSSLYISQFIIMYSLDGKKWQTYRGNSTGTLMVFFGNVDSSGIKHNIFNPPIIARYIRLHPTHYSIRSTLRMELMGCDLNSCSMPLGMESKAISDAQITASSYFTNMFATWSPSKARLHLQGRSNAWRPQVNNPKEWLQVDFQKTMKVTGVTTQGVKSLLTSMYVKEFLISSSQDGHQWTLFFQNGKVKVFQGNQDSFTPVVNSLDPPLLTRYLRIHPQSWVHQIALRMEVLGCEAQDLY


Molecular target: T1, recombinant Factor VIII (CSL627, …)
Assay: SPR, anti-His capture, FVIII injected, 37 C
Description: Binding kinetics were investigated by surface plasmon resonance using a Biacore 4000 biosensor at 37° C. Each mutant was captured from cell culture medium to a density of 40-150 RU on a CM-5 sensor chip pre-immobilised with anti-His antibody (14,000 RU). In an initial screening study, FVIII was injected over the captured mutants for 5 minutes at 1 nM and dissociation monitored for 5 minutes.
All sensorgrams were double referenced by subtraction of signals from a reference spot (containing only immobilised anti His antibody) and from a blank injection. Binding kinetics were determined by fitting the double referenced sensorgrams to a 1:1 kinetic model.

| Binder | Kd | koff | kon |
| --- | --- | --- | --- |
| Hu-vWF[764-1270]-8His S764P-L765E-S766I (other) PEICRPPMVKLVCPADNLRAEGLECTKTCQNYDLECMSMGCVSGCLCPPGMVRHENRCVALERCPCFHQGKEYAPGETVKIGCNTCVCRDRKWNCTDHVCDATCSTIGMAHYLTFDGLKYLFPGECQYVLVQDYCGSNPGTFRILVGNKGCSHPSVKCKKRVTILVEGGEIELFDGEVNVKRPMKDETHFEVVESGRYIILLLGKALSVVWDRHLSISVVLKQTYQEKVCGLCGNFDGIQNNDLTSSNLQVEEDPVDFGNSWKVSSQCADTRKVPLDSSPATCHNNIMKQTMVDSSCRILTSDVFQDCNKLVDPEPYLDVCIYDTCSCESIGDCACFCDTIAAYAHVCAQHGKVVTWRTATLCPQSCEERNLRENGYECEWRYNSCAPACQVTCQHPEPLACPVQCVEGCHAHCPPGKILDELLQTCVDPEDCPVCEVAGRRFASGKKVTLNPSDPEHCQICHCDVVNLTCEACQEPGGLVVPPTDAPVSPTTLYVEDISEPPLHDFHHHHHHHH | 53600 pM | 0.055 s⁻¹ | 1.03e+06 M⁻¹ s⁻¹ |
| Hu-vWF[764-1270]-8His S764P-L765G-S766I (other) PGICRPPMVKLVCPADNLRAEGLECTKTCQNYDLECMSMGCVSGCLCPPGMVRHENRCVALERCPCFHQGKEYAPGETVKIGCNTCVCRDRKWNCTDHVCDATCSTIGMAHYLTFDGLKYLFPGECQYVLVQDYCGSNPGTFRILVGNKGCSHPSVKCKKRVTILVEGGEIELFDGEVNVKRPMKDETHFEVVESGRYIILLLGKALSVVWDRHLSISVVLKQTYQEKVCGLCGNFDGIQNNDLTSSNLQVEEDPVDFGNSWKVSSQCADTRKVPLDSSPATCHNNIMKQTMVDSSCRILTSDVFQDCNKLVDPEPYLDVCIYDTCSCESIGDCACFCDTIAAYAHVCAQHGKVVTWRTATLCPQSCEERNLRENGYECEWRYNSCAPACQVTCQHPEPLACPVQCVEGCHAHCPPGKILDELLQTCVDPEDCPVCEVAGRRFASGKKVTLNPSDPEHCQICHCDVVNLTCEACQEPGGLVVPPTDAPVSPTTLYVEDISEPPLHDFHHHHHHHH | 241 pM | 0.0122 s⁻¹ | 5.04e+07 M⁻¹ s⁻¹ |
| Hu-vWF[764-1270]-8His S764P-L765H-S766I (other) PHICRPPMVKLVCPADNLRAEGLECTKTCQNYDLECMSMGCVSGCLCPPGMVRHENRCVALERCPCFHQGKEYAPGETVKIGCNTCVCRDRKWNCTDHVCDATCSTIGMAHYLTFDGLKYLFPGECQYVLVQDYCGSNPGTFRILVGNKGCSHPSVKCKKRVTILVEGGEIELFDGEVNVKRPMKDETHFEVVESGRYIILLLGKALSVVWDRHLSISVVLKQTYQEKVCGLCGNFDGIQNNDLTSSNLQVEEDPVDFGNSWKVSSQCADTRKVPLDSSPATCHNNIMKQTMVDSSCRILTSDVFQDCNKLVDPEPYLDVCIYDTCSCESIGDCACFCDTIAAYAHVCAQHGKVVTWRTATLCPQSCEERNLRENGYECEWRYNSCAPACQVTCQHPEPLACPVQCVEGCHAHCPPGKILDELLQTCVDPEDCPVCEVAGRRFASGKKVTLNPSDPEHCQICHCDVVNLTCEACQEPGGLVVPPTDAPVSPTTLYVEDISEPPLHDFHHHHHHHH | 42.4 pM | 6.6e-05 s⁻¹ | 1.56e+06 M⁻¹ s⁻¹ |
| Hu-vWF[764-1270]-8His S764P-L765I-S766I (other) PIICRPPMVKLVCPADNLRAEGLECTKTCQNYDLECMSMGCVSGCLCPPGMVRHENRCVALERCPCFHQGKEYAPGETVKIGCNTCVCRDRKWNCTDHVCDATCSTIGMAHYLTFDGLKYLFPGECQYVLVQDYCGSNPGTFRILVGNKGCSHPSVKCKKRVTILVEGGEIELFDGEVNVKRPMKDETHFEVVESGRYIILLLGKALSVVWDRHLSISVVLKQTYQEKVCGLCGNFDGIQNNDLTSSNLQVEEDPVDFGNSWKVSSQCADTRKVPLDSSPATCHNNIMKQTMVDSSCRILTSDVFQDCNKLVDPEPYLDVCIYDTCSCESIGDCACFCDTIAAYAHVCAQHGKVVTWRTATLCPQSCEERNLRENGYECEWRYNSCAPACQVTCQHPEPLACPVQCVEGCHAHCPPGKILDELLQTCVDPEDCPVCEVAGRRFASGKKVTLNPSDPEHCQICHCDVVNLTCEACQEPGGLVVPPTDAPVSPTTLYVEDISEPPLHDFHHHHHHHH | 1620 pM | 0.0103 s⁻¹ | 6.34e+06 M⁻¹ s⁻¹ |
